{"source": "paper PMC8629394", "about": "“Anaerobic peroxisomes in Entamoeba histolytica metabolize myo-inositol” (PLoS Pathogens, 2021)", "proteins": {"B1": {"name": "recombinant 6xHis-tagged E. histolytica myo-inositol dehydrogenase (myo-IDH) (enzyme, Entamoeba histolytica, UniProt C4LVW1 1-316, looked up)", "chain": "MQSNKVRICLCGTGRLGSFRASLFIESQDIELVGVVEPFRVCQSVLDRPNIKIFKTVEEINIPIDGIWISTPTKFHLQTIKLASKKVKHIYCEKPIASTPEEVKEAYETCRKNGVSLHCGWMRRRDPGYQSIKEYLVSHNVSIQRAEFHSFDWPLVPPEFLKTLGNIFTDLMCHDFNLIMYYMNNTLPKYVTAVGIDGGAGVWDSATASLEYPNNVVLTIIATRNGNKVYDNSLTVLTSDSHILECGKEPENLTETFMKRHEKNFKKELPFFANIIRNNGTSGDVLSCVNTSILIQAATRSATLGGKRIPLVIPKL", "notes": "myo-inositol dehydrogenase (myo-IDH, EC 1.1.1.18) of Entamoeba histolytica, gene EHI_125740; theoretical weight 36.4 kDa including the 6x-His tag; the natural protein ends in a PTS1 tripeptide; also called putative inositol dehydrogenase; EHI_125740; source: E. coli BL21 Rosetta, pET42b, purified (Ni-NTA agarose, native conditions, imidazole)"}}, "key": {"[1]": {"molecular_target": "the molecule itself", "test": "SEC-MALS; enzymatically active myo-IDH, 0.5-2 mg/ml, Agilent Biosec-3 column, 0.3 ml/min, 50 mM phosphate buffer pH 7.0, 300 mM NaCl, 15°C; miniDAWN light scattering, refractive index and UV detectors"}, "purified protein [2]": {"substrate": "NC(=O)c1ccc[n+]([C@@H]2O[C@H](COP(=O)(O)OP(=O)(O)OC[C@H]3O[C@@H](n4cnc5c(N)ncnc54)[C@H](OP(=O)(O)O)[C@@H]3O)[C@@H](O)[C@H]2O)c1", "test": "purified protein", "type": "biochemical, Entamoeba histolytica", "conditions": "12.5 mM myo-inositol, 10 mM sodium pyrophosphate pH 9, room temperature; pH 9.0; varied: cofactor"}, "purified protein [3]": {"substrate": "NC(=O)C1=CN([C@@H]2O[C@H](COP(=O)(O)OP(=O)(O)OC[C@H]3O[C@@H](n4cnc5c(N)ncnc54)[C@H](O)[C@@H]3O)[C@@H](O)[C@H]2O)C=CC1", "test": "purified protein", "type": "biochemical, Entamoeba histolytica", "conditions": "reverse reaction, keto-2-inositol as presumed co-substrate (concentration not stated); varied: cofactor"}, "purified protein [4]": {"substrate": "O[C@H]1[C@H](O)[C@@H](O)[C@H](O)[C@@H](O)[C@H]1O", "test": "purified protein", "type": "biochemical, Entamoeba histolytica", "conditions": "1 mM NAD+, 10 mM sodium pyrophosphate pH 9, room temperature; pH 9.0"}, "purified protein [5]": {"substrate": "O=C1[C@@H](O)[C@H](O)[C@@H](O)[C@H](O)[C@H]1O", "test": "purified protein", "type": "biochemical, Entamoeba histolytica", "conditions": "reverse reaction, NADH as co-substrate (concentration not stated)"}, "purified protein [6]": {"substrate": "O[C@H]1[C@H](O)[C@@H](O)[C@H](O)[C@@H](O)[C@@H]1O", "test": "purified protein", "type": "biochemical, Entamoeba histolytica", "conditions": "1 mM NAD+, 10 mM sodium pyrophosphate pH 9, room temperature; pH 9.0"}, "purified protein [7]": {"substrate": "NC(=O)c1ccc[n+]([C@@H]2O[C@H](COP(=O)(O)OP(=O)(O)OC[C@H]3O[C@@H](n4cnc5c(N)ncnc54)[C@H](O)[C@@H]3O)[C@@H](O)[C@H]2O)c1", "test": "purified protein", "type": "biochemical, Entamoeba histolytica", "conditions": "12.5 mM myo-inositol, 10 mM sodium pyrophosphate pH 9, room temperature; pH 9.0; varied: cofactor"}}, "note": "Where “and” joins values, the source holds several entries; their conditions need not be identical. Identical values can stand only once.", "data": [{"protein": "B1", "values": [{"measurement": "stoichiometry N", "setting": "[1]", "value": "2 and 3"}, {"measurement": "Km", "setting": "purified protein [2]", "value": "1201 ± 532", "unit": "µM"}, {"measurement": "Vmax", "setting": "purified protein [2]", "value": 0.826, "unit": "µmol/min/mg"}, {"measurement": "Km", "setting": "purified protein [3]", "value": "9 ± 0", "unit": "µM"}, {"measurement": "Vmax", "setting": "purified protein [3]", "value": 1.64, "unit": "µmol/min/mg"}, {"measurement": "Km", "setting": "purified protein [4]", "value": "44 ± 4", "unit": "µM"}, {"measurement": "Vmax", "setting": "purified protein [4]", "value": 5.45, "unit": "µmol/min/mg"}, {"measurement": "Km", "setting": "purified protein [5]", "value": "322 ± 34", "unit": "µM"}, {"measurement": "Vmax", "setting": "purified protein [5]", "value": 4.41, "unit": "µmol/min/mg"}, {"measurement": "Km", "setting": "purified protein [6]", "value": "229 ± 20", "unit": "µM"}, {"measurement": "Vmax", "setting": "purified protein [6]", "value": 6.2, "unit": "µmol/min/mg"}, {"measurement": "Km", "setting": "purified protein [7]", "value": "38 ± 4", "unit": "µM"}, {"measurement": "Vmax", "setting": "purified protein [7]", "value": 1, "unit": "µmol/min/mg"}]}]}
